# Source: IntAct's records for PubMed 29039417
# B1: BBSome complex member BBS1 (Homo sapiens), Q8NFJ9 (parent)
# chain: MAAASSSDSDACGAESNEANSKWLDAHYDPMANIHTFSACLALADLHGDGEYKLVVGDLGPGGQQPRLKVLKGPLVMTESPLPALPAAAATFLMEQHEPRTPALALASGPCVYVYKNLRPYFKFSLPQLPPNPLEQDLWNQAKEDRIDPLTLKEMLESIRETAEEPLSIQSLRFLQLELSEMEAFVNQHKSNSIKRQTVITTMTTLKKNLADEDAVSCLVLGTENKELLVLDPEAFTILAKMSLPSVPVFLEVSGQFDVEFRLAAACRNGNIYILRRDSKHPKYCIELSAQPVGLIRVHKVLVVGSTQDSLHGFTHKGKKLWTVQMPAAILTMNLLEQHSRGLQAVMAGLANGEVRIYRDKALLNVIHTPDAVTSLCFGRYGREDNTLIMTTRGGGLIIKILKRTAVFVEGGSEVGPPPAQAMKLNVPRKTRLYVDQTLREREAGTAMHRAFQTDLYLLRLRAARAYLQALESSLSPLSTTAREPLKLHAVVQGLGPTFKLTLHLQNTSTTRPVLGLLVCFLYNEALYSLPRAFFKVPLLVPGLNYPLETFVESLSNKGISDIIKVLVLREGQSAPLLSAHVNMPGSEGLAAA
# partner: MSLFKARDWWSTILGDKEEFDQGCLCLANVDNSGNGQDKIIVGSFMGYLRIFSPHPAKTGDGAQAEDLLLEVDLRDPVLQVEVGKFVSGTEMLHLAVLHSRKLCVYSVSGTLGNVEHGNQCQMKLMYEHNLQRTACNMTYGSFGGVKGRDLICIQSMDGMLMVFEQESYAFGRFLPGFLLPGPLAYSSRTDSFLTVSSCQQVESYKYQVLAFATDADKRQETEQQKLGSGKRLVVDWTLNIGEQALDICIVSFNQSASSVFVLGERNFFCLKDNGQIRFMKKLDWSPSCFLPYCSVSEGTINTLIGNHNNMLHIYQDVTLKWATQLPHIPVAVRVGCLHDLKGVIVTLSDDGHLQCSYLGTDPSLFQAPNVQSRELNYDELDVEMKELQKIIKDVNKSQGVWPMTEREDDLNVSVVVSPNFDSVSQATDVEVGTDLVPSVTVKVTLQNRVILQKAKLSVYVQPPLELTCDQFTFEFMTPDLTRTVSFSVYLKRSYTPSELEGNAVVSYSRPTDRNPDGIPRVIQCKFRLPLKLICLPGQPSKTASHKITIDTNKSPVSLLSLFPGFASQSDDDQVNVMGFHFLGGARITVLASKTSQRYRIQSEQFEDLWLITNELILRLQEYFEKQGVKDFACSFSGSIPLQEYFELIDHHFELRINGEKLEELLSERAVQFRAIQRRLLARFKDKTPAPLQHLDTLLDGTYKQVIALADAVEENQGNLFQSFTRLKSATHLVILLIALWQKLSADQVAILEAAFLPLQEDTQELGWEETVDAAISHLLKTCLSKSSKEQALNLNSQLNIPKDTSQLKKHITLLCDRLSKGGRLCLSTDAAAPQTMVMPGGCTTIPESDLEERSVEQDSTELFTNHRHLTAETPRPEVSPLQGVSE
# Variants of: B1
# Conditions: with pthb1_human BBS9, Q3SYG4
row,Variant,effect of a mutation on the interaction
1,MAAASSSDSDACGAESNEANSKWLDAHYDPMANIHTFSACLALADLHGDGEYKLVVGDLGPGGQQPRLKVLKGPLVMTESPLPALPAAAATFLMEQHEPRTPALALASGPCVYVYKNLRPYFKFSLPQLPPNPLEQDLWNQAKEDRIDPLTLKEMLESIRETAEEPLSIQSLRFLQLELSEMEAFVNQHKSNSIKRQTVITTMTTLKKNLADEDAVSCLVLGTENKELLVLDPEAFTILAKMSLPSVPVFLEVSGQFDVEFRLAAACRNGNIYILRRDSKHPKYCIELSAQPVGLIRVHKVLVVGSTQDSLHGFTHKGKKLWTVQMPAAILTMNLLEQHSRGLQAVMAGLANGEVRIYRDKALLNVIHTPDAVTSLCFGRYGREDNTLIMTTRGGGLIIKILKRTAVFVEGGSEVGPPPAQAMKLNVPRKTRLYVDQTLREREAGTAMHRAFQTDLYLLRLRAARAYLQALESSLSPLSTTAREPLKLHAVVQGLGPTFKLTLHLQNTSTTRPVLGLLVCFLYNEAPYSLPRAFFKVPLLVPGLNYPLETFVESLSNKGISDIIKVLVLREGQSAPLLSAHVNMPGSEGLAAA [L527P],disrupting interaction strength
2,MAAASSSDSDACGAESNEANSKWLDAHYDPMANIHTFSACLALADLHGDGEYKLVVGDLGPGGQQPRLKVLKGPLVMTESPLPALPAAAATFLMEQHEPRTPALALASGPCVYVYKNLRPYFKFSLPQLPPNPLEQDLWNQAKEDRIDPLTLKEMLESIRETAEEPLSIQSLRFLQLELSEMEAFVNQHKSNSIKRQTVITTMTTLKKNLADEDAVSCLVLGTENKELLVLDPEAFTILAKMSLPSVPVFLEVSGQFDVEFRLAAACRNGNIYILRRDSKHPKYCIELSAQPVGLIRVHKVLVVGSTQDSLHGFTHKGKKLWTVQMPAAILTMNLLEQHSRGLQAVMAGLANGEVRIYRDKALLNVIHTPDAVTSLCFGRYGREDNTLIMTTRGGGLIIKILKRTAVFVEGGSEVGPPPAQAMKLNVPRKTRLYVDQTLREREAGTAMHRAFQTDLYLLRLRAARAYLQALESSLSPLSTTAREPLKLHAVVQGLGPTFKLTLHLQNTSTTRPVLGLLVCFLYNEAKYSLPRAFFKVPLLVPGLNYPLETFVESLSNKGISDIIKVLVLREGQSAPLLSAHVNMPGSEGLAAA [L527K],with no effect
3,MAAASSSDSDACGAESNEANSKWLDAHYDPMANIHTFSACLALADLHGDGEYKLVVGDLGPGGQQPRLKVLKGPLVMTESPLPALPAAAATFLMEQHEPRTPALALASGPCVYVYKNLRPYFKFSLPQLPPNPLEQDLWNQAKEDRIDPLTLKEMLESIRETAEEPLSIQSLRFLQLELSEMEAFVNQHKSNSIKRQTVITTMTTLKKNLADEDAVSCLVLGTENKELLVLDPEAFTILAKMSLPSVPVFLEVSGQFDVEFRLAAACRNGNIYILRRDSKHPKYCIELSAQPVGLIRVHKVLVVGSTQDSLHGFTHKGKKLWTVQMPAAILTMNLLEQHSRGLQAVMAGLANGEVRIYRDKALLNVIHTPDAVTSLCFGRYGREDNTLIMTTRGGGLIIKILKRTAVFVEGGSEVGPPPAQAMKLNVPRKTRLYVDQTLREREAGTAMHRAFQTDLYLLRLRAARAYLQALESSLSPLSTTAREPLKLHAVVQGLGPTFKLTLHLQNTSTTRPVLGLLVCFLYNEALASLPRAFFKVPLLVPGLNYPLETFVESLSNKGISDIIKVLVLREGQSAPLLSAHVNMPGSEGLAAA [Y528A],disrupting interaction strength

# Second part, the variant after the results:
row,effect of a mutation on the interaction,Variant
1,disrupting interaction strength,MAAASSSDSDACGAESNEANSKWLDAHYDPMANIHTFSACLALADLHGDGEYKLVVGDLGPGGQQPRLKVLKGPLVMTESPLPALPAAAATFLMEQHEPRTPALALASGPCVYVYKNLRPYFKFSLPQLPPNPLEQDLWNQAKEDRIDPLTLKEMLESIRETAEEPLSIQSLRFLQLELSEMEAFVNQHKSNSIKRQTVITTMTTLKKNLADEDAVSCLVLGTENKELLVLDPEAFTILAKMSLPSVPVFLEVSGQFDVEFRLAAACRNGNIYILRRDSKHPKYCIELSAQPVGLIRVHKVLVVGSTQDSLHGFTHKGKKLWTVQMPAAILTMNLLEQHSRGLQAVMAGLANGEVRIYRDKALLNVIHTPDAVTSLCFGRYGREDNTLIMTTRGGGLIIKILKRTAVFVEGGSEVGPPPAQAMKLNVPRKTRLYVDQTLREREAGTAMHRAFQTDLYLLRLRAARAYLQALESSLSPLSTTAREPLKLHAVVQGLGPTFKLTLHLQNTSTTRPVLGLLVCFLYNEALESLPRAFFKVPLLVPGLNYPLETFVESLSNKGISDIIKVLVLREGQSAPLLSAHVNMPGSEGLAAA [Y528E]
2,disrupting interaction strength,MAAASSSDSDACGAESNEANSKWLDAHYDPMANIHTFSACLALADLHGDGEYKLVVGDLGPGGQQPRLKVLKGPLVMTESPLPALPAAAATFLMEQHEPRTPALALASGPCVYVYKNLRPYFKFSLPQLPPNPLEQDLWNQAKEDRIDPLTLKEMLESIRETAEEPLSIQSLRFLQLELSEMEAFVNQHKSNSIKRQTVITTMTTLKKNLADEDAVSCLVLGTENKELLVLDPEAFTILAKMSLPSVPVFLEVSGQFDVEFRLAAACRNGNIYILRRDSKHPKYCIELSAQPVGLIRVHKVLVVGSTQDSLHGFTHKGKKLWTVQMPAAILTMNLLEQHSRGLQAVMAGLANGEVRIYRDKALLNVIHTPDAVTSLCFGRYGREDNTLIMTTRGGGLIIKILKRTAVFVEGGSEVGPPPAQAMKLNVPRKTRLYVDQTLREREAGTAMHRAFQTDLYLLRLRAARAYLQALESSLSPLSTTAREPLKLHAVVQGLGPTFKLTLHLQNTSTTRPVLGLLVCFLYNEALCSLPRAFFKVPLLVPGLNYPLETFVESLSNKGISDIIKVLVLREGQSAPLLSAHVNMPGSEGLAAA [Y528C]
